Source: patent publication US20200199241A1 (Chugai, published 2020)

biological target: T1, soluble human FcRn complexed with β2-microglobulin (human, UniProt P61769 21-119, limits assumed); experiment: Biacore SPR, pH 7.0;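 further: test antibodies captured on a Protein L chip with human FcRn flowed over as analyte, KD obtained as the ratio of dissociation to association rate constants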
T1 construct: also called hFcRn

Row | Binder | Kd
1 | IgG1-F1118 (antibody, EU numbering; copies: 2 + 2) heavy: QVQLQESGPGLVKPSETLSLTCAVSGHSISHDHAWSWVRQPPGEGLEWIGFISYSGITNYNPSLQGRVTISRDNSKNTLYLQMNSLRAEDTAVYYCARSLARTTAMDYWGEGTLVTVSSASTKGPSVFPLAPSSKSTSGGTAALGCLVKDYFPEPVTVSWNSGALTSGVHTFPAVLQSSGLYSLSSVVTVPSSSLGTQTYICNVNHKPSNTKVDKKVEPKSCDKTHTCPPCPAPELLGGPSVFLFPPKPKDVLYISRTPEVTCVVVDVSHEDPEVKFNWYVDGVEVHNAKTKPREEQYNSTYRVVSVLQPLHADWLNGKEYKCKVSNKALPAPIEKTISKAKGQPREPQVYTLPPSRDELTKNQVSLTCLVKGFYPSDIAVEWESNGQPENNYKTTPPVLDSDGSFFLYSKLTVDKSRWQQGNVFNCSVMHEALHYHVTQKSLSLSP light: not shown | 13.2 nM
2 | IgG1-F1122 (antibody, EU numbering; copies: 2 + 2) heavy: QVQLQESGPGLVKPSETLSLTCAVSGHSISHDHAWSWVRQPPGEGLEWIGFISYSGITNYNPSLQGRVTISRDNSKNTLYLQMNSLRAEDTAVYYCARSLARTTAMDYWGEGTLVTVSSASTKGPSVFPLAPSSKSTSGGTAALGCLVKDYFPEPVTVSWNSGALTSGVHTFPAVLQSSGLYSLSSVVTVPSSSLGTQTYICNVNHKPSNTKVDKKVEPKSCDKTHTCPPCPAPELLGGPSVFLFPPKPKDVLYISRTPEVTCVVVDVSHEDPEVKFNWYVDGVEVHNAKTKPREEQYNSTYRVVSVLQPLHADWLNGKEYKCKVSNKALPAPIEKTISKAKGQPREPQVYTLPPSRDELTKNQVSLTCLVKGFYPSDIAVEWESNGQPENNYKTTPPVLDSDGSFFLYSKLTVDKSRWQQGNVFSCSVMHEALHYHVTRKSLSLSP light: not shown | 13.7 nM
3 | IgG1-F1119 (antibody, EU numbering; copies: 2 + 2) heavy: QVQLQESGPGLVKPSETLSLTCAVSGHSISHDHAWSWVRQPPGEGLEWIGFISYSGITNYNPSLQGRVTISRDNSKNTLYLQMNSLRAEDTAVYYCARSLARTTAMDYWGEGTLVTVSSASTKGPSVFPLAPSSKSTSGGTAALGCLVKDYFPEPVTVSWNSGALTSGVHTFPAVLQSSGLYSLSSVVTVPSSSLGTQTYICNVNHKPSNTKVDKKVEPKSCDKTHTCPPCPAPELLGGPSVFLFPPKPKDVLYISRTPEVTCVVVDVSHEDPEVKFNWYVDGVEVHNAKTKPREEQYNSTYRVVSVLQPLHADWLNGKEYKCKVSNKALPAPIEKTISKAKGQPREPQVYTLPPSRDELTKNQVSLTCLVKGFYPSDIAVEWESNGQPENNYKTTPPVLDSDGSFFLYSKLTVDKSRWQQGNEFSCSVMHEALHYHVTQKSLSLSP light: not shown | 10.3 nM
4 | IgG1-F1123 (antibody, EU numbering; copies: 2 + 2) heavy: QVQLQESGPGLVKPSETLSLTCAVSGHSISHDHAWSWVRQPPGEGLEWIGFISYSGITNYNPSLQGRVTISRDNSKNTLYLQMNSLRAEDTAVYYCARSLARTTAMDYWGEGTLVTVSSASTKGPSVFPLAPSSKSTSGGTAALGCLVKDYFPEPVTVSWNSGALTSGVHTFPAVLQSSGLYSLSSVVTVPSSSLGTQTYICNVNHKPSNTKVDKKVEPKSCDKTHTCPPCPAPELLGGPSVFLFPPKPKDVLYISRTPEVTCVVVDVSHEDPEVKFNWYVDGVEVHNAKTKPREEQYNSTYRVVSVLQPLHADWLNGKEYKCKVSNKALPAPIEKTISKAKGQPREPQVYTLPPSRDELTKNQVSLTCLVKGFYPSDIAVEWESNGQPENNYKTTPPVLDSDGSFFLYSKLTVDKSRWQQGNVFSCSVMHEALHYHVTQKELSLSP light: not shown | 9.55 nM
5 | IgG1-F1124 (antibody, EU numbering; copies: 2 + 2) heavy: QVQLQESGPGLVKPSETLSLTCAVSGHSISHDHAWSWVRQPPGEGLEWIGFISYSGITNYNPSLQGRVTISRDNSKNTLYLQMNSLRAEDTAVYYCARSLARTTAMDYWGEGTLVTVSSASTKGPSVFPLAPSSKSTSGGTAALGCLVKDYFPEPVTVSWNSGALTSGVHTFPAVLQSSGLYSLSSVVTVPSSSLGTQTYICNVNHKPSNTKVDKKVEPKSCDKTHTCPPCPAPELLGGPSVFLFPPKPKDVLYISRTPEVTCVVVDVSHEDPEVKFNWYVDGVEVHNAKTKPREEQYNSTYRVVSVLQPLHADWLNGKEYKCKVSNKALPAPIEKTISKAKGQPREPQVYTLPPSRDELTKNQVSLTCLVKGFYPSDIAVEWESNGQPENNYKTTPPVLDSDGSFFLYSKLTVDKSRWQQGNVFSCSVMHEALHYHVTRKELSLSP light: not shown | 12.2 nM
6 | IgG1-F1121 (antibody, EU numbering; copies: 2 + 2) heavy: QVQLQESGPGLVKPSETLSLTCAVSGHSISHDHAWSWVRQPPGEGLEWIGFISYSGITNYNPSLQGRVTISRDNSKNTLYLQMNSLRAEDTAVYYCARSLARTTAMDYWGEGTLVTVSSASTKGPSVFPLAPSSKSTSGGTAALGCLVKDYFPEPVTVSWNSGALTSGVHTFPAVLQSSGLYSLSSVVTVPSSSLGTQTYICNVNHKPSNTKVDKKVEPKSCDKTHTCPPCPAPELLGGPSVFLFPPKPKDVLYISRTPEVTCVVVDVSHEDPEVKFNWYVDGVEVHNAKTKPREEQYNSTYRVVSVLQPLHADWLNGKEYKCKVSNKALPAPIEKTISKAKGQPREPQVYTLPPSRDELTKNQVSLTCLVKGFYPSDIAVEWESNGQPENNYKTTPPVLDSDGSFFLYSKLTVDKSRWQQGNEFRCSVMHEALHYHVTQKSLSLSP light: not shown | 10.4 nM
7 | IgG1-F1120 (antibody, EU numbering; copies: 2 + 2) heavy: QVQLQESGPGLVKPSETLSLTCAVSGHSISHDHAWSWVRQPPGEGLEWIGFISYSGITNYNPSLQGRVTISRDNSKNTLYLQMNSLRAEDTAVYYCARSLARTTAMDYWGEGTLVTVSSASTKGPSVFPLAPSSKSTSGGTAALGCLVKDYFPEPVTVSWNSGALTSGVHTFPAVLQSSGLYSLSSVVTVPSSSLGTQTYICNVNHKPSNTKVDKKVEPKSCDKTHTCPPCPAPELLGGPSVFLFPPKPKDVLYISRTPEVTCVVVDVSHEDPEVKFNWYVDGVEVHNAKTKPREEQYNSTYRVVSVLQPLHADWLNGKEYKCKVSNKALPAPIEKTISKAKGQPREPQVYTLPPSRDELTKNQVSLTCLVKGFYPSDIAVEWESNGQPENNYKTTPPVLDSDGSFFLYSKLTVDKSRWQQGNVFRCSVMHEALHYHVTQKSLSLSP light: not shown | 10.4 nM

More lines, now with the values ahead:

Row | Kd | Binder
8 | 55.4 nM | IgG1-F1130 (antibody, EU numbering; copies: 2 + 2) heavy: QVQLQESGPGLVKPSETLSLTCAVSGHSISHDHAWSWVRQPPGEGLEWIGFISYSGITNYNPSLQGRVTISRDNSKNTLYLQMNSLRAEDTAVYYCARSLARTTAMDYWGEGTLVTVSSASTKGPSVFPLAPSSKSTSGGTAALGCLVKDYFPEPVTVSWNSGALTSGVHTFPAVLQSSGLYSLSSVVTVPSSSLGTQTYICNVNHKPSNTKVDKKVEPKSCDKTHTCPPCPAPELLGGPSVFLFPPKPKDTLYISRTPEVTCVVVDVSHEDPEVKFNWYVDGVEVHNAKTKPREEQYNSTYRVVSVLAVLHADWLNGKEYKCKVSNKALPAPIEKTISKAKGQPREPQVYTLPPSRDELTKNQVSLTCLVKGFYPSDIAVEWESNGQPENNYKTTPPVLDSDGSFFLYSKLTVDKSRWQQGNVFSCSVMHEALHYHVTQKSLSLSP light: not shown
9 | 117 nM | IgG1-F1128 (antibody, EU numbering; copies: 2 + 2) heavy: QVQLQESGPGLVKPSETLSLTCAVSGHSISHDHAWSWVRQPPGEGLEWIGFISYSGITNYNPSLQGRVTISRDNSKNTLYLQMNSLRAEDTAVYYCARSLARTTAMDYWGEGTLVTVSSASTKGPSVFPLAPSSKSTSGGTAALGCLVKDYFPEPVTVSWNSGALTSGVHTFPAVLQSSGLYSLSSVVTVPSSSLGTQTYICNVNHKPSNTKVDKKVEPKSCDKTHTCPPCPAPELLGGPSVFLFPPKPKDTLYISRTPEVTCVVVDVSHEDPEVKFNWYVDGVEVHNAKTKPREEQYNSTYRVVSVLTVLHHDWLNGKEYKCKVSNKALPAPIEKTISKAKGQPREPQVYTLPPSRDELTKNQVSLTCLVKGFYPSDIAVEWESNGQPENNYKTTPPVLDSDGSFFLYSKLTVDKSRWQQGNVFSCSVMHEALHYHVTQKSLSLSP light: not shown
10 | 51.8 nM | IgG1-F1125 (antibody, EU numbering; copies: 2 + 2) heavy: QVQLQESGPGLVKPSETLSLTCAVSGHSISHDHAWSWVRQPPGEGLEWIGFISYSGITNYNPSLQGRVTISRDNSKNTLYLQMNSLRAEDTAVYYCARSLARTTAMDYWGEGTLVTVSSASTKGPSVFPLAPSSKSTSGGTAALGCLVKDYFPEPVTVSWNSGALTSGVHTFPAVLQSSGLYSLSSVVTVPSSSLGTQTYICNVNHKPSNTKVDKKVEPKSCDKTHTCPPCPAPELLGGPSVFLFPPKPKDTLYISRTPEVTCVVVDVSHEDPEVKFNWYVDGVEVHNAKTKPREEQYNSTYRVVSVLQVLHQDWLNGKEYKCKVSNKALPAPIEKTISKAKGQPREPQVYTLPPSRDELTKNQVSLTCLVKGFYPSDIAVEWESNGQPENNYKTTPPVLDSDGSFFLYSKLTVDKSRWQQGNVFSCSVMHEALHYHVTQKSLSLSP light: not shown
11 | 79.4 nM | IgG1-F1127 (antibody, EU numbering; copies: 2 + 2) heavy: QVQLQESGPGLVKPSETLSLTCAVSGHSISHDHAWSWVRQPPGEGLEWIGFISYSGITNYNPSLQGRVTISRDNSKNTLYLQMNSLRAEDTAVYYCARSLARTTAMDYWGEGTLVTVSSASTKGPSVFPLAPSSKSTSGGTAALGCLVKDYFPEPVTVSWNSGALTSGVHTFPAVLQSSGLYSLSSVVTVPSSSLGTQTYICNVNHKPSNTKVDKKVEPKSCDKTHTCPPCPAPELLGGPSVFLFPPKPKDTLYISRTPEVTCVVVDVSHEDPEVKFNWYVDGVEVHNAKTKPREEQYNSTYRVVSVLTVLHADWLNGKEYKCKVSNKALPAPIEKTISKAKGQPREPQVYTLPPSRDELTKNQVSLTCLVKGFYPSDIAVEWESNGQPENNYKTTPPVLDSDGSFFLYSKLTVDKSRWQQGNVFSCSVMHEALHYHVTQKSLSLSP light: not shown
12 | 89.5 nM | IgG1-F1126 (antibody, EU numbering; copies: 2 + 2) heavy: QVQLQESGPGLVKPSETLSLTCAVSGHSISHDHAWSWVRQPPGEGLEWIGFISYSGITNYNPSLQGRVTISRDNSKNTLYLQMNSLRAEDTAVYYCARSLARTTAMDYWGEGTLVTVSSASTKGPSVFPLAPSSKSTSGGTAALGCLVKDYFPEPVTVSWNSGALTSGVHTFPAVLQSSGLYSLSSVVTVPSSSLGTQTYICNVNHKPSNTKVDKKVEPKSCDKTHTCPPCPAPELLGGPSVFLFPPKPKDTLYISRTPEVTCVVVDVSHEDPEVKFNWYVDGVEVHNAKTKPREEQYNSTYRVVSVLAVLHQDWLNGKEYKCKVSNKALPAPIEKTISKAKGQPREPQVYTLPPSRDELTKNQVSLTCLVKGFYPSDIAVEWESNGQPENNYKTTPPVLDSDGSFFLYSKLTVDKSRWQQGNVFSCSVMHEALHYHVTQKSLSLSP light: not shown
13 | 44.8 nM | IgG1-F1129 (antibody, EU numbering; copies: 2 + 2) heavy: QVQLQESGPGLVKPSETLSLTCAVSGHSISHDHAWSWVRQPPGEGLEWIGFISYSGITNYNPSLQGRVTISRDNSKNTLYLQMNSLRAEDTAVYYCARSLARTTAMDYWGEGTLVTVSSASTKGPSVFPLAPSSKSTSGGTAALGCLVKDYFPEPVTVSWNSGALTSGVHTFPAVLQSSGLYSLSSVVTVPSSSLGTQTYICNVNHKPSNTKVDKKVEPKSCDKTHTCPPCPAPELLGGPSVFLFPPKPKDTLYISRTPEVTCVVVDVSHEDPEVKFNWYVDGVEVHNAKTKPREEQYNSTYRVVSVLQVLHHDWLNGKEYKCKVSNKALPAPIEKTISKAKGQPREPQVYTLPPSRDELTKNQVSLTCLVKGFYPSDIAVEWESNGQPENNYKTTPPVLDSDGSFFLYSKLTVDKSRWQQGNVFSCSVMHEALHYHVTQKSLSLSP light: not shown
